± gives the uncertainty stated by the source.
Assay: self-splicing fitness, log relative to wild type (ln ratio); higher = more splicing; Tetrahymena group I intron in knt gene, E. coli kanamycin selection, DiMSum; sequences stand for … in CUCUCU…GGAGGGAAAAGUUAUCAGGCAUGCACCUGGUAGCUAGUCUUUAAACCAAUAGAUUGCAUCGGUUUAAAAGGCAAGACCGUCAAAUUGCGGGAAAGGGGUCAACAGCCGUUCAGUACCAAGUCUCAGGGGAAACUUUGAGAUGGCCUUGCAAAGGGUAUGGUAAUAAGCUGACGGACAUGGUCCUAACCACGCAGCCAAGUCCUAAGUCAACAGAUCUUCUGUUGAUAUGGAUGCAGUUCACAGACUAAAUGUCGGUCGGGGAAGAUGUAUUCUUCUCAUAAGAUAUAGUCGGACCUCUCCUUAAUGGGAGCUAGCGGAUGAAGUGAUGCAACACUGGAGCCGCUGGGAACUAAUUUGUAUGCGAAAGUAUAUUGAUUAGUUUUGGAGUACUCGUGGUCG
In short: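 A randomised library covering all eight P1ex-region intron nucleotides was built with the intron in the knt kanamycin-resistance gene on pET-22b(+) and held in E. coli BL21(DE3). Cells were grown overnight at 37°C or 30°C on LB agar, with or without 25 μg/mL kanamycin, plus 100 μg/mL carbenicillin, 50 μM IPTG and 0.2% rhamnose, and pooled colonies were amplicon-sequenced on an Illumina HiSeq 2500. DiMSum fitness is the error-weighted combination of wild-type-normalised replicate fold changes, kanamycin versus none.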

Sequence	self-splicing fitness (ln) (30 °C)	self-splicing fitness (ln) (37 °C)
AACGAGCAAUAUUACGGGCU	-3.63 ± 0.23	-2.49 ± 0.22
ACCUAGCAAUAUUACGCUUU	-1.26 ± 0.055	-0.293 ± 0.081
GGAUAGCAAUAUUACGCAGC	-3.14 ± 0.25	-1.59 ± 0.2
GGUGAGCAAUAUUACGAUAC	-2.03 ± 0.16	-0.811 ± 0.15
UGAAAGCAAUAUUACGUACG	-0.177 ± 0.11	0.639 ± 0.13
GUCCAGCAAUAUUACGGCAG		-2.06 ± 0.2
UGGAAGCAAUAUUACGGAGA	-2.7 ± 0.22	-1.31 ± 0.13
AACAAGCAAUAUUACGGGUG	-0.579 ± 0.047	-0.604 ± 0.064
GAUUAGCAAUAUUACGGCGA	-1.12 ± 0.11	-0.219 ± 0.11
CCCUAGCAAUAUUACGAUAG	-2.74 ± 0.2	-2.39 ± 0.27
UAAUAGCAAUAUUACGGGUG	-1.9 ± 0.096	-0.875 ± 0.094
UGUUAGCAAUAUUACGUGUG	-0.767 ± 0.12	-0.724 ± 0.13
AACUAGCAAUAUUACGGGUG	-0.377 ± 0.049	-0.0736 ± 0.07
AUAGAGCAAUAUUACGUUCA	0.258 ± 0.11	-0.633 ± 0.12
AUACAGCAAUAUUACGAAUA	-2.51 ± 0.12	-0.987 ± 0.11
UGUCAGCAAUAUUACGAAUG	0.0484 ± 0.12	0.565 ± 0.12
ACUUAGCAAUAUUACGGCCA	-0.83 ± 0.13	-0.409 ± 0.19
UCCUAGCAAUAUUACGAACA	-2.9 ± 0.29	-1.3 ± 0.22
CGUAAGCAAUAUUACGCCAU	-3.78 ± 0.24	-2.7 ± 0.23
AAACAGCAAUAUUACGACUU	0.0535 ± 0.066	0.468 ± 0.086
UCGUAGCAAUAUUACGGAGA	-2.51 ± 0.18	-2.53 ± 0.27
AUAUAGCAAUAUUACGAGAC	-3.02 ± 0.39	-1.61 ± 0.49
GGCUAGCAAUAUUACGACUG	-1.54 ± 0.16	-0.524 ± 0.22
CACGAGCAAUAUUACGUUUA	-2.88 ± 0.18	-2.52 ± 0.19
UAUUAGCAAUAUUACGUUGU	-3.93 ± 0.34	-3.04 ± 0.4
AAAUAGCAAUAUUACGCGAA	-1.42 ± 0.14	-1.59 ± 0.16

Sequence	self-splicing fitness (ln) (30 °C)	self-splicing fitness (ln) (37 °C)
GACGAGCAAUAUUACGCAGC	-3.4 ± 0.27	-1.69 ± 0.28
AGCGAGCAAUAUUACGAUUU	-1.4 ± 0.1	-0.548 ± 0.14
GCAGAGCAAUAUUACGCGAG	-3.58 ± 0.35	-2.46 ± 0.28
UCGAAGCAAUAUUACGGGCA	-0.603 ± 0.094	-0.507 ± 0.1
CGCCAGCAAUAUUACGGUCA	-0.14 ± 0.066	0.542 ± 0.092
GACCAGCAAUAUUACGUGAU	-0.306 ± 0.05	-0.151 ± 0.063
AGGCAGCAAUAUUACGUAUU	-1.41 ± 0.095	-1.22 ± 0.12
CCGGAGCAAUAUUACGCACG		-0.516 ± 0.21
AGAAAGCAAUAUUACGAACC	-1.29 ± 0.17	-0.276 ± 0.13
UACGAGCAAUAUUACGGGUU	-2.88 ± 0.14	-3.21 ± 0.23
UGUCAGCAAUAUUACGGGCA	-2.75 ± 0.21	-1.78 ± 0.27
CGUAAGCAAUAUUACGACUC	-3.64 ± 0.3	-0.95 ± 0.17
CCCGAGCAAUAUUACGGAGC	-1.75 ± 0.16	-2.77 ± 0.36
CGCUAGCAAUAUUACGGACA	-0.438 ± 0.14	-0.65 ± 0.13
GUAAAGCAAUAUUACGCCAA	-0.7 ± 0.17	-0.982 ± 0.26
UUCUAGCAAUAUUACGCCGG		-2.05 ± 0.37
GCUUAGCAAUAUUACGGGUU	-1.95 ± 0.094	-1.43 ± 0.14
CUUAAGCAAUAUUACGGCGA	-4.04 ± 0.46	-1.81 ± 0.34
AACAAGCAAUAUUACGCAGC	-3.18 ± 0.16	-2.53 ± 0.18
CGCCAGCAAUAUUACGUAGU	-2.67 ± 0.1	-1.18 ± 0.11
CCCCAGCAAUAUUACGCAAG	-3.05 ± 0.14	-2.28 ± 0.19
GGACAGCAAUAUUACGAUAA	-1.81 ± 0.073	-0.876 ± 0.08
CAACAGCAAUAUUACGAGUC	-3.58 ± 0.2	-2.58 ± 0.26
AAGCAGCAAUAUUACGUUAG	-3.74 ± 0.18	-2.52 ± 0.15
GGAAAGCAAUAUUACGAUGA	-1.68 ± 0.2	-0.498 ± 0.2
GGCAAGCAAUAUUACGCUUC	-1.44 ± 0.21	-2.39 ± 0.42

Sequence	self-splicing fitness (ln) (30 °C)	self-splicing fitness (ln) (37 °C)
CGCAAGCAAUAUUACGUGGG	-4.69 ± 0.25	-3.16 ± 0.17
ACGAAGCAAUAUUACGACAA	-0.701 ± 0.2	-0.985 ± 0.19
ACCGAGCAAUAUUACGGUAA	-2.6 ± 0.18	-1.7 ± 0.12
UAUUAGCAAUAUUACGGGGU		-1.52 ± 0.38
AAAAAGCAAUAUUACGGUGG	-2.28 ± 0.1	-1.77 ± 0.13
UUCAAGCAAUAUUACGACCG	-1.29 ± 0.14	0.147 ± 0.18
GAGCAGCAAUAUUACGAUGA	-2.62 ± 0.25	-1.03 ± 0.14
CGGCAGCAAUAUUACGGCAA	-1.1 ± 0.083	-1.27 ± 0.1
GAAAAGCAAUAUUACGAGAU	-3.26 ± 0.26	-2.08 ± 0.28
AAGUAGCAAUAUUACGACGG	-1.74 ± 0.29	-1.66 ± 0.34
UAGAAGCAAUAUUACGUGAG	-0.573 ± 0.06	-0.716 ± 0.079
GCGUAGCAAUAUUACGCUCC	-1.88 ± 0.2	-0.401 ± 0.39
GCUUAGCAAUAUUACGCAUA	-1.58 ± 0.14	-0.612 ± 0.11
GUUUAGCAAUAUUACGUCUC	-0.593 ± 0.19	0.43 ± 0.24
CGAUAGCAAUAUUACGUUUU	-3.78 ± 0.19	-2.76 ± 0.16
UAUAAGCAAUAUUACGGGAA	-2.77 ± 0.2	-1.5 ± 0.18
GAAGAGCAAUAUUACGAGUA	-3.78 ± 0.37	-2.75 ± 0.38
ACUAAGCAAUAUUACGGACG	-0.961 ± 0.087	-0.106 ± 0.14
GUCGAGCAAUAUUACGUAGA	-2.65 ± 0.17	-1.88 ± 0.24
UCGAAGCAAUAUUACGCACU	-2.62 ± 0.18	-0.962 ± 0.14
AGUUAGCAAUAUUACGAUGA	-1.32 ± 0.18	-0.239 ± 0.16
UGUCAGCAAUAUUACGAGCA	-0.272 ± 0.12	-0.347 ± 0.13
GCUAAGCAAUAUUACGUCGC	-2.46 ± 0.19	-2.55 ± 0.29
CGUCAGCAAUAUUACGCCAA	-3.6 ± 0.3	-1.73 ± 0.18

From the supplement of paper PMC7877785
